A short description of this data set: protease stability score; higher = more stable; yeast display proteolysis, trypsin and chymotrypsin.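 Note: relative to predicted unfolded state with 0 unfolded-like and 1 meaning tenfold more protease.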
“DEEEEKDRILVEIWKRLVLTGDEEELLNLADPEARQTVHFNGKEVRNVGMERVIEHNREYLRLMGVDHITVDRSRVVNGRVENHHRVFVGEKEIRFEIEVTIINGRLRSVTIRVR” showed a protease stability score of 0.379.

“DEEEEKLKKWADDTIQLLRTGDEEDLYKMLDPHARTEVNGRELHGREEMFKVLKTIWDKVKGIKFLHRDHRLYNGRVEIHGELVIGDKIHKVHIIVLIINGKIKEVEIHIH” yielded a protease stability score of 1.39. Next, “DEEEEKLRELIRIFIEDWKTGDFDSLAHLLDPNARLDIHINGVHLHYHGREKILEFLWRWFERFKNARVELKRIRIVNGRSEIDSETTFNGRSSDMEIDIVIINGRVRSERFKVG”: 1.47; “DEEEEKLRFAVELFEETFRTGDEKLKEHLADPDVRVHYGDFEYHGRETLERWTRFVKGVKVELKSIDIINGVLDLDGTLHFNGRTFDTRYLALKINGRWILKRVIIH”: 1.49. Sequence “DEEEEKSKRMLEIIIHAVMTGDFQHLLDNMDPHVKLDIDGVDLHGRESAEEFVKKVKNLTLHDWKLDHWHIQGDKVTMHVTIDGLYNGKKERTRVIIIALKINGQWHIKSMKID” returned a protease stability score of 1.9. For the sequence “DEEEELAHKATEHWLHLVRTGDEEKISSQADPNTKVEIRQGDKRIDSHGMEHFSELLRKLIEDYGVNHIHVNIVRLIDGRVHVNSLVHVGDKEIKIHIWADKVNGRWIHRNMHVHVG”, the protease stability score came to 0.547. The sequence “DEEEELAIEVVQRWVEDFLTGDFRSFRELADPNTKTRINGQEMHGRHVYVEWFVKWLKQIDHHDFKLHDVKVINGQVHTDGEMRLEVNGREHRSRVELILVIINGRLHMVELRIK” gave a protease stability score of 2.13. Sequence “DEEEELAIHFWRLFLHLIITGDWERLTELMDPNVRIDINGKEIHGRELASEHLRKLMEHARFRDHHLEDVKIYDGVVEMHGRIDGRFDGKDVDTRMIVYTVKVNGKWLLKRVVHL” gave a protease stability score of 2.32.

The sequence “DEEEELAKEMLERFNKSLHTGDEESIERLLDPDVRVIFNGKDLIGRETVADFLKEWRMSVHTFEIRRFHSQGEKMHLDGHTEIKIHFNGKTVHLNHRVEHHMHKVNGRWTIHSIQFL” registered a protease stability score of 1.18.

In turn, “DEEEELARKSLEVWLKSSQTGDENHLEHMFDPNARLNIDGVELIGREHAKIWAKELRIHDIYPRRLRIQGNKLFLDLESDEEYNGKRTHFRRHLVMLKVNGVWIIESMHVE” displayed a protease stability score of 1.43.

On to “DEEEELARKYTEIYRHFMHTGDEDLNREFADPNTQILQGNKRFHGWKWYLEIVRRLGADHMEIHRVDVQGDKVHNDGRMIVNGKTLHFELIITKIDGRWVLREVRLG”, for which the protease stability score was found to be 1.4. Then “DEEEELARRASRKLIELMLTGDEDSLEEMLDPNVKVQIGDKELHGRIAIEIMSRQFKNVRIEVKRLSVQGNYVDLDVRVNINGVWVEQRIQIEKVDGRWTLKENTIV”, with 2.23. Sequence “DEEEELIKHHLELHLEAVKTGDEEHLHRNMDPNVRLHVNGQDRHGREDVSTLLREIRLKDFKIHDVDIQGNKMRFDGFILGEINGREHNVHTTIYAEKVDGRWLIRHFEIR” displayed a protease stability score of 1.04. In turn, “DEEEELLKDLLRKWLEAMRTGDWEELERLLDPHVRIHIGDKDIHGRELFIELHERELKRIKNVKIVIDDKHIEFQGDKARVDGKLQEQVGDKEITHRVIIIMRVIDGKFESMEVRYV” returned a protease stability score of 1.08. “DEEEELLRKLVEELHKALRTGNEHVLRHLIDPHVRIDIDGRELHGREQFVELWKRLVDELRIHDMKIRSIKTQGDFVHSSTELDLEYGDKKFRLTTELDVRSIDGRVKHVSIRYH” came in with a protease stability score of 1.53. “DEEEELLRRLIKMLLHLMRTGDEDETANLLDPNVRIEWNGRTFHGREEAKRWLFELLSRVDVVKDIKIHDYDRYGDFVLLDVRLHGEIDGVPTETIFIIIIRKINGRWMIHQIYLE” showed a protease stability score of 1.42. “DEEEELLRRMLHLLYHFLKTGDEDTLSRLMDPNYLLIIGDKEHHGREEYRKVMKRADVLEIMHIHDVHFQGDKIHIDGHSRWRVGDKMHETRIEIIAVKFNGRWHFHSIIVR” came in with a protease stability score of 0.804. The sequence “DEEEELLTRTSELFSHNLHTGDEDSLIHLADPHTRIDVDGVQLHGMETWSEQFSRDMHEHGARSEVHYKRREVVGDKAKIHLVLTITYNGRTIIRNIELRMTKIDGVWILRHISYH” yielded a protease stability score of 1.26. Sequence “DEEEELMHRLVELFLKALITGDEETLSHLADPNVRLHIDGRHIHGWQFSVKEWLRESSEIRMELQIRHIHLIGDKVHVHGQLSIHQGNKHIHREVIYDFVIINGRLKSITVEIT” yielded a protease stability score of 1.99. As for “DEEEELMRSFLRLWFEAMITGDEHTLKELIDPDVRIEQGDKTHHGWEEFLRKFHKIKNMTIRHVELNHEHVQGDKIDLIITLHGHINGRHEELEVRLHARKVDGRWKMTRIHYQ”, the protease stability score was 2.66. In turn, “DEEEELNREALKEFHDDMKTGDERHILENLDPNTRIQFNGRDLHGRENAERFIRELIQKYGATVFNMKRVEVQGDWLHIDGELVIGDKKHRIHIIAVKINGRWTDTELRIK” yielded a protease stability score of 1.48. Take “DEEEELNRRLVELMIRWHETGDFDMIEKYMDPDAKLNINGQEIHGMEKITNLFLWRFEFFKGAQYRMNRVRVQGDKASIDGRLNVDGRTHSIEIRIVIINGRNHSIEIHDR”: the protease stability score stood at 1.41.

“DEEEELREESEKFEHRAWETGDWKLLAELMDPHTRFITEDHDFHGRENMEKLLEDDLRRIKNATIRSIIIRRTHEINGRLLLIGIVDVEIDGKRVIRDVKYIKVKINGRWYITTMQVR” displayed a protease stability score of 0.796. “DEEEELSKIAIRIFLKTLETGDERTLSELMDPHARLVINGREYHGREEASKEWHKWVEHLRVRDIKISSVRINEHELILHEKFEVEVNGRNLKLDVLIIVVKVDGRWVLRTNTIN” returned a protease stability score of 2.68.

Sequence “DEEEELSKIAYHLTEHIWETGDEDLLKELLDPNTQVTQGEWHVHGRESMHRFLRHVRERLGVDQIDVDVKSVRAFNGVVTTHVNLHFNGRTYTMTLFSNKYNGKWTVKSMKIQ” had a protease stability score of 1.29. In the case of “DEEEELSKRLVELLLKLLKTGNEEELIKNADPHAKVQIRINGREFIHHGWEAFSHLWRHYIIKFKNIRIHDRHMEIQGDWVHIHSEEQIGDKRIEVEIRIQIINGVQKNVHIDIHEH”, the protease stability score was 1.47. The sequence “DEEEELSTEVMEHVLELVLTGDEERLWKLFDPHVRLDIDGKHIIGRELVSKINKDRRRELRIHHVELKRFETQGEKVHSDIRVDGWIDGRRIDTDAHVIVVVVDGRLKSLRIIHH” registered a protease stability score of 1.18.

Consider “DEEEELTKRFLDIMLHNLKTGNEEEISKMADPNVKLDIGDKENHGRESMSRAWHEELRRLGAKHIDVRSVELQGDKLIIRMRLEVDGRTFEVLIIIIVVDGRLKHIQFKSH”, for which the protease stability score stood at 0.704.

In turn, “DEEEELTKRWIDHLLRLWNTGDEHHFLKMADPHVRIEQGDKEHIGREEMYRWLQQFKNIRLHIDDIDIQGDFLNIDGYINFNGVHREAKVHIRVINGKLHSIIIRIK” returned a protease stability score of 1.3. The sequence “DEEEELTRLALEWLLKVSKTGDERLFREEFDPNVKLDINGRDFHGREEAVRVWLKFVHDAGFKHIEIERVLSFDGRLHLHGVEHIGDKEVETHILTEKFDGKWVMRSIKIN” came in with a protease stability score of 0.301.

“DEEEELVIHVAHEILHNHLTGDEERWEELADPRTKVEFNGVQNHGREFTNEYRKEFHNRYDHWEIRIRDYRVIDGVAHFDTELIIRQGDKEIRVKVHLEFIIVNGKVSEIRIEVR” yielded a protease stability score of 0.607. “DEEEELVLRIMHELLKLVLTGDFKRLSELLDPNVRMEIVVGDKHIEEHGRERMSHWILEWLRHARVKEFRIHHLIAYDGQTDSNVRLNVRIGDKEHRFRVIVILQVIDGKIRSLTIIFE” returned a protease stability score of 1.51.

With “DEEEELVREFLHRLKQSHETGDEKMYRENADPDVRIEVNGVTIHGMERATRWASEMRFKHEELRHIEVDENHVHIDGIVKGRINGRDVETKVHFHVRKVNGVWLLKRIKFT”, the protease stability score stood at 0.956. Next, “DEEEELVRLATEHSLELMRTGDWSHLHKLMDPHALLSVNGREVHGRENAVRLIITILEDLGVKHFHLEHVEVIDGRVNIDGRLHQGDKKLNNEIWLVKINGRWRLKSIHIELK”: 1.17.

(Values after the NTF2 design screens of Basanta et al. (2020).)
